{"source": "patent US20180185504A1", "about": "(Regeneron, published 2018)", "binders": {"B1": {"name": "H1H6790P (antibody, human IgG1, V domains shown)", "VH": "EVQLVESGGGLVQPGGSLRLSCAASGFTFSSYAMTWVRQAPGKGLEWVSAITGSVGNTYYADSVKGRFTISRDNSKNTLYLQMNSLGAEDTAEYYCAKGAGMTTNWYLDLWGRGTLVTVSS", "VL": "DIVMTQSPDSLAVSLGARATINCKSSQSVLYSSNNQNYLTWYQQKPGQPPKLLIKWASTRESGVPDRFSGSGSGTDFTLTISSLQAEDVAVYYCQQYASSPYTFGQGTKLEIK", "notes": "human IgG1 Fc (H1H)"}, "B2": {"name": "H1H6797P (antibody, human IgG1, V domains shown)", "VH": "EVQLVESGGGLVQPGGSLRLSCIVSGFTFSGSWMSWVRQLPGKGLEWVANIKEDGSDSYYVDSVEGRFTISRDNAKSSLYLQMNSLRVDDTAVYFCARARTVPLHYWGQGTLVTVSS", "VL": "DIQMTQSPSTLSASVGDRVTITCRASQSINIWLAWYQQKPGKAPKLLIYRASYLESGVPSSFAGGGSGTEFTLTISSLQPDDFGTYYCQHYNSYPFTFGQGTKLEIK", "notes": "human IgG1 Fc (H1H)"}, "B3": {"name": "H1H6807P (antibody, V domains shown)", "VH": "QVQLVESGGGVVQPGRSLRLSCAASGFTFSDYNMHWVRQAPGKGLEWVAVIWYDGSNKHYADSVKGRFTISRDNSKNTLYLQMNSLRAEDTAVYYCARDGFTIFGMVLDYWGQGTLVTVSS", "VL": "not shown", "notes": "human IgG1 Fc (H1H)"}, "B4": {"name": "H1H6783P (antibody, human IgG1, V domains shown)", "VH": "QVQLQQSGPGLVKPSQTLSLTCAISGDSVSSNTFAWNWIRQSPSRGLEWLGRTYYRSKWYIDYAESVKSRITITPDTSKNQFSLQLNSVTPEDTALYYCAGGYTYAPRGAFDIWGQGTMVTVSS", "VL": "not shown", "notes": "human IgG1 Fc (H1H)"}, "B5": {"name": "H1H6792P (antibody, human IgG1, V domains shown)", "VH": "EVQLVESGGGLVQPGRSLRLSCAASGFTLDDHAVHWVRQAPGKGLEWVSGISWNSVYIDYADSVKGRFTIFRDNAKNSLYLQMNSLRAEDTAFYYCARDIEGARDYWGQGTLVTVSS", "VL": "DIQMTQSPSSLSASVGDRVTITCRASQGIRNDLGWYQQKPGKAPKRLIYAASSLQSGVPSRFSGSGYGTEFTLTISSLQPEDFAPYYCLQHNSYPLTFGGGTKVEIK", "notes": "human IgG1 Fc (H1H)"}, "B6": {"name": "H1H6953N (antibody, human IgG1, V domains shown)", "VH": "EVQLLESGGGLVQPGGTLRLSCAASGFTFSAYAMSWVRQAPGKGLEWVSSINVRAGDTYYADSVKGRFTISRDNSKNTLFLLMNSLRAEDTAAYYCAKARYSSNWGFDFWGQGTLVTVSS", "VL": "DIVMTQSPDSLTVSLGARTTINCQSSQTILHSSNNHNYLAWYQQKPGLPPKLLIYWSSTRESGVPDRFSGSGSGTDFTLTISSLQAEDVAIYYCQQYSNTPYTFGQGTKLEIN", "notes": "also called H1M6953N"}, "B7": {"name": "H1H6804P (antibody, human IgG1, V domains shown)", "VH": "QVTLKESGPVLVKPTQTLSLTCTVSGFSLSDAGMGVSWIRQPPGKALEWLAHIFSNDGKSYSTSLKSRLTISKDTSKRQVVLTMTNMDPVDTATYYCARIRTGTYSLYLDYWGQGTLVTVSS", "VL": "DIQMTQSPSSLSASVGDRVTITCRASQSINSYLNWYQQKPGKAPKLLLYFASSLQSGVPSRFSGSGSGTDFTLTISSLQPEDFASYYCQESYSTPWTFGQGTKVEIK", "notes": "human IgG1 Fc (H1H)"}, "B8": {"name": "H1H6960N (antibody, human IgG1, V domains shown)", "VH": "EVQLVESGGGLVKPGGSLRLSCAASGITFSSYSMNWVRQAPGKGLEWVSSISTRSSLIHYADSVKGRFTISRDNAKNSLYLQMNSLRDEDTAVYYCARWDAAAAFDYWGQGTLVIVSS", "VL": "DIQLTQSPSFLSASVGDRVTITCWASQGISSYLAWYQQKPGKAPKLLIYVASTLQSGVPSRFSGSGSGTEFTLTISSLQPEDFATYFCQQLNSYPLTFGGGTKVEIK", "notes": "also called H2M6960N"}, "B9": {"name": "H1H6966N (antibody, human IgG1, V domains shown)", "VH": "QVQLVQSGAEVQKPGASVKVSCKVSGYTLTALSIHWVRQAPGKGLEWMGNFDPGDGETIHAQKFQGRVTMTGDTSTDTAYMELSSLRSEDTAVYYCVGVTFDYWGQGTLVTVSS", "VL": "EIVMTQSPATLSVSPGERATLSCRASQSVASNLAWYQQKPGQAPRLLLYGASTRATGIPARFSGSGSGTEFTLTISSLQSEDFALYYCQHYNNWPLTFGGGTKVEIK", "notes": "also called H2M6966N"}, "B10": {"name": "H1H6959N2 (antibody, human IgG1, V domains shown)", "VH": "EVQLVESGGGLVQPGRSLRLSCAASGFTFDDYAMHWVRQAPGKGLEWVSGISWHSGIIGYADSVKGRFTISRDNAKNSLYLQMNSLRTEDAALYYCAKIGSYFYFDSWGQGTLVTVSS", "VL": "EIVLTQSPGTLSLSPGERATLSCRASQSVSSNYLAWYQQKPGQAPRLLIYGASSRATGIPDRFSGSGSGTDFTLTISRLEPEDFAVYYCQQFGSSGYTFGQGTNLEIK", "notes": "also called H2M6959N2"}, "B11": {"name": "H1H6795P (antibody, human IgG1, V domains shown)", "VH": "QVQLVQSGAEVKKPGASVKVSCKASGYTFGTSGITWVRQAPGQGLEWMGWSSAYNGKTDYAQKFQDRVTMTTDTSTTTGYMEMRSLTSDDTAVYYCTTVVRRPFDFWGQGTLVTVSS", "VL": "DIQMTQSPSSLSASVGDRVTITCRASQDINNFLAWFQQKPGKAPKSLIYAASSLQSGVPSKFSGGGSGTDFALTISSLQPEDFATYYCQQYSSYPITFGQGTRLEIK", "notes": "human IgG1 Fc (H1H)"}}}
{"molecular_target": "T1, human PRLR on cells (endogenous on T47D, T47D#11, MCF7); introduced in HEK293/hPRLR/STAT5-Luc, 293/hPRLR, … (human, UniProt P16471 25-622)", "T1 sequence": "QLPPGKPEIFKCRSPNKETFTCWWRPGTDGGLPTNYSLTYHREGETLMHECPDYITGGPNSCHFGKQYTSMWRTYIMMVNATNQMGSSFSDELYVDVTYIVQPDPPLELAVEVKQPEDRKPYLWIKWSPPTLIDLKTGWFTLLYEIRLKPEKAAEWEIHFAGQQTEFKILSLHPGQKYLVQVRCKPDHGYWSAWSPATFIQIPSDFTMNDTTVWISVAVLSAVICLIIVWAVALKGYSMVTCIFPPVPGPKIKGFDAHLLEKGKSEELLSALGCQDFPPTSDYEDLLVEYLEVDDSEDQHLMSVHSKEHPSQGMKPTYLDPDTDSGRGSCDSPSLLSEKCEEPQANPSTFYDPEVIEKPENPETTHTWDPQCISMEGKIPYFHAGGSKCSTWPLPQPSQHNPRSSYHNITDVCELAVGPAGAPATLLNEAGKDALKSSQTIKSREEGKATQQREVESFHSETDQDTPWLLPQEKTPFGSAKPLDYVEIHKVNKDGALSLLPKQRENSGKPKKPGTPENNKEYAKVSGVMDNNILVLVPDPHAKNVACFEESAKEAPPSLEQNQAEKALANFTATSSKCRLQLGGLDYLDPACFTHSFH", "experiment": "cell-based or functional assay", "units": {"% Internalization relative to Control I (T47D cells, imaging)": "%"}}
{"binder": "B1", "% Internalization relative to Control I (T47D cells, imaging)": 147}
{"binder": "B2", "% Internalization relative to Control I (T47D cells, imaging)": 145}
{"binder": "B3", "% Internalization relative to Control I (T47D cells, imaging)": 147}
{"binder": "B4", "% Internalization relative to Control I (T47D cells, imaging)": 161}
{"binder": "B5", "% Internalization relative to Control I (T47D cells, imaging)": 156}
{"binder": "B6", "% Internalization relative to Control I (T47D cells, imaging)": 154}
{"binder": "B7", "% Internalization relative to Control I (T47D cells, imaging)": 139}
{"binder": "B8", "% Internalization relative to Control I (T47D cells, imaging)": 120}
{"binder": "B9", "% Internalization relative to Control I (T47D cells, imaging)": 137}
{"binder": "B10", "% Internalization relative to Control I (T47D cells, imaging)": 15.3}
{"binder": "B11", "% Internalization relative to Control I (T47D cells, imaging)": 151}
{"molecular_target": "T2, mouse PRLR construct with an HA tag on HEK293/mPRLR cells (mouse, UniProt Q08501 20-608)", "T2 construct": "whole, on cells; stably transfected into HEK293", "T2 sequence (looked up)": "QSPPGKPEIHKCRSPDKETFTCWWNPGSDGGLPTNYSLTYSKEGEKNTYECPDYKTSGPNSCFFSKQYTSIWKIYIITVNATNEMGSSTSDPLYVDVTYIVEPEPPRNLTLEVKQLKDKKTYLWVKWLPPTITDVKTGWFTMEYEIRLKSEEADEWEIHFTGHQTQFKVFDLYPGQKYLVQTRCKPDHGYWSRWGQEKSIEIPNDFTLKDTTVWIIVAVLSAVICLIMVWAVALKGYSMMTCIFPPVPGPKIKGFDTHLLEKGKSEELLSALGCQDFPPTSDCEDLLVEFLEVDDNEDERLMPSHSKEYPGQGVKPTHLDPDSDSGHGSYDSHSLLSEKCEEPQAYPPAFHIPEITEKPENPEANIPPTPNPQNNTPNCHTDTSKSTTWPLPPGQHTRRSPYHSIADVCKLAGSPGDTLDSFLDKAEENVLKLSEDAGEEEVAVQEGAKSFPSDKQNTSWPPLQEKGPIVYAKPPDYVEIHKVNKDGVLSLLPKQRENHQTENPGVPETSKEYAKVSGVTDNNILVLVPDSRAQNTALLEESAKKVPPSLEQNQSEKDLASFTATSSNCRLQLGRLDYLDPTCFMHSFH", "experiment": "FACS on HEK293/mPRLR cells", "units": {"FACS Cell Binding (Fold Above Background)": "fold"}}
{"binder": "B1", "FACS Cell Binding (Fold Above Background)": 1}
{"binder": "B2", "FACS Cell Binding (Fold Above Background)": 2}
{"binder": "B3", "FACS Cell Binding (Fold Above Background)": 2}
{"binder": "B4", "FACS Cell Binding (Fold Above Background)": 1}
{"binder": "B5", "FACS Cell Binding (Fold Above Background)": 3}
{"binder": "B6", "FACS Cell Binding (Fold Above Background)": 2}
{"binder": "B7", "FACS Cell Binding (Fold Above Background)": 1}
{"binder": "B8", "FACS Cell Binding (Fold Above Background)": 1}
{"binder": "B9", "FACS Cell Binding (Fold Above Background)": 1}
{"binder": "B10", "FACS Cell Binding (Fold Above Background)": 2}
{"binder": "B11", "FACS Cell Binding (Fold Above Background)": 1}
{"molecular_target": "T1, human PRLR on cells (endogenous on …)", "experiment": "imaging of alexa488 intensity on T47D cells", "method": "Briefly, 20,000 T47D cells were seeded in collagen coated 96 well plates. […] Cells were then incubated with alexa488 conjugated anti-hFc Fab secondary antibodies for 30 minutes on ice followed by two additional PBS washes. Antibodies were allowed to internalize for 1 h at 37° C. in internalization buffer (PBS+2% FBS) or remained at 4° C. Cells were fixed in 4% formaldehyde, nuclei were stained with DRAQ5 (Cell signaling), and images were acquired on the ImageXpress micro XL (Molecular Devices). Whole cell alexa488 intensity at 37° C. (Binding) and the alexa488 intensity in the intracellular vesicles at 37° C. (Internalization) were determined via Columbus image analysis software (PerkinElmer).", "units": {"% Total Binding relative to Control I": "%"}}
{"binder": "B1", "% Total Binding relative to Control I": 123}
{"binder": "B2", "% Total Binding relative to Control I": 151}
{"binder": "B3", "% Total Binding relative to Control I": 153}
{"binder": "B4", "% Total Binding relative to Control I": 166}
{"binder": "B5", "% Total Binding relative to Control I": 111}
{"binder": "B6", "% Total Binding relative to Control I": 164}
{"binder": "B7", "% Total Binding relative to Control I": 150}
{"binder": "B8", "% Total Binding relative to Control I": 89.7}
{"binder": "B9", "% Total Binding relative to Control I": 111}
{"binder": "B10", "% Total Binding relative to Control I": 2}
{"binder": "B11", "% Total Binding relative to Control I": 123}
